From US10344077 (DUKE UNIVERSITY, dated 2019)

How the values were obtained:
Jo-1 [1] = molecular target: T1, Jo-1 (UniProt P12081 2-509); test: AtheNA
T1 sequence (looked up): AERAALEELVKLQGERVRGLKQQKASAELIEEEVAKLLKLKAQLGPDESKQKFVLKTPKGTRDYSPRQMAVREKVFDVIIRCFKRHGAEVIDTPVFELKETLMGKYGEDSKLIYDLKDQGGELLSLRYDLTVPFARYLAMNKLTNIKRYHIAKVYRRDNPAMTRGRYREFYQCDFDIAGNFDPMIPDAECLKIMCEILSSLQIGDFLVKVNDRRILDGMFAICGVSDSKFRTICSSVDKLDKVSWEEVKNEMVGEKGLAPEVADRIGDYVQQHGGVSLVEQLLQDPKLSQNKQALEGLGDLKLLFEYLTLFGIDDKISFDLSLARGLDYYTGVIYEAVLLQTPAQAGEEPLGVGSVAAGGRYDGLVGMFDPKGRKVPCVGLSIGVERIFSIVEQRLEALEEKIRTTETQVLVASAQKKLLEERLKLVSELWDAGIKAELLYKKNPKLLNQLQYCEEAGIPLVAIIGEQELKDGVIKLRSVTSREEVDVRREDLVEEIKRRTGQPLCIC
Source text: (§1) AtheNA Multi-Lyte ANA Plus Test System is one such assay. This is luminex-based assay, which is also used to screen patient sera.

Scl-70 [2] = molecular target: T2, Scl-70 (UniProt P11387 2-765); test: AtheNA
T2 sequence (looked up): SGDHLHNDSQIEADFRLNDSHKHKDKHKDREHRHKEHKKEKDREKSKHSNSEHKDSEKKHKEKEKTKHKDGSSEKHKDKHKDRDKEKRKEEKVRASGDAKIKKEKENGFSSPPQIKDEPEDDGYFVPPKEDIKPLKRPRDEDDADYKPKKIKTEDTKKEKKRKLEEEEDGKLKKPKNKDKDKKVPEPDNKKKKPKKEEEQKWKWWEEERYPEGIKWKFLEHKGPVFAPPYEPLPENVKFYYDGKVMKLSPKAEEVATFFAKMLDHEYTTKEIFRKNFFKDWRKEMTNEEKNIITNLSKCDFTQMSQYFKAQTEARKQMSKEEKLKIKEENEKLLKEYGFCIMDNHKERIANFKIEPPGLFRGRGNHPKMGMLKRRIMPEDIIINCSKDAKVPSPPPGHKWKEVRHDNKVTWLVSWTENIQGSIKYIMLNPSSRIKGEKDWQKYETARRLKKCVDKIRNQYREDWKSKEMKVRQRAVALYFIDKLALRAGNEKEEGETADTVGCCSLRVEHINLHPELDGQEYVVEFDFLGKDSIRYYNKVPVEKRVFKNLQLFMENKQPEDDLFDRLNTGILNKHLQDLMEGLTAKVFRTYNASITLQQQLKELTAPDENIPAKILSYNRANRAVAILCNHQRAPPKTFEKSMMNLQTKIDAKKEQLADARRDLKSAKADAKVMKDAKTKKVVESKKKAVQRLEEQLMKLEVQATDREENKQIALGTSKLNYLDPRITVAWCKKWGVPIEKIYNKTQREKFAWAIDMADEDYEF
Source text: as §1

SSB [3] = molecular target: T3, SSB (UniProt P05455 1-408); test: AtheNA
T3 sequence (looked up): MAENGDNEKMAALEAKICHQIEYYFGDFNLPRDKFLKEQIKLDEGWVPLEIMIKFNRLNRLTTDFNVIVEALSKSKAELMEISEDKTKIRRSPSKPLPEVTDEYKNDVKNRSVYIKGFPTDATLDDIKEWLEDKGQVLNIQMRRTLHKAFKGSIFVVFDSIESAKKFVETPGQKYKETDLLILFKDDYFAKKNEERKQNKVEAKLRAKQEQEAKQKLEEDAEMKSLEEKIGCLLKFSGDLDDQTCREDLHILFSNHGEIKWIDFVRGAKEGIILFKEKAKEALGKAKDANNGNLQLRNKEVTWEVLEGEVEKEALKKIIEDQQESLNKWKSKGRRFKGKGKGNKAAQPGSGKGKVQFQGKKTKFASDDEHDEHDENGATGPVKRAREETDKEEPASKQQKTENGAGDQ
Source text: as §1

Jo-1 [4] = molecular target: T1, Jo-1; test: AtheNA, Ab 25 ug/ml
Source text: as §1

Centromere B [5] = molecular target: T4, Centromere B (UniProt P07199 2-599); test: AtheNA, Ab 25 ug/ml
T4 construct: also called Cent B
T4 sequence (looked up): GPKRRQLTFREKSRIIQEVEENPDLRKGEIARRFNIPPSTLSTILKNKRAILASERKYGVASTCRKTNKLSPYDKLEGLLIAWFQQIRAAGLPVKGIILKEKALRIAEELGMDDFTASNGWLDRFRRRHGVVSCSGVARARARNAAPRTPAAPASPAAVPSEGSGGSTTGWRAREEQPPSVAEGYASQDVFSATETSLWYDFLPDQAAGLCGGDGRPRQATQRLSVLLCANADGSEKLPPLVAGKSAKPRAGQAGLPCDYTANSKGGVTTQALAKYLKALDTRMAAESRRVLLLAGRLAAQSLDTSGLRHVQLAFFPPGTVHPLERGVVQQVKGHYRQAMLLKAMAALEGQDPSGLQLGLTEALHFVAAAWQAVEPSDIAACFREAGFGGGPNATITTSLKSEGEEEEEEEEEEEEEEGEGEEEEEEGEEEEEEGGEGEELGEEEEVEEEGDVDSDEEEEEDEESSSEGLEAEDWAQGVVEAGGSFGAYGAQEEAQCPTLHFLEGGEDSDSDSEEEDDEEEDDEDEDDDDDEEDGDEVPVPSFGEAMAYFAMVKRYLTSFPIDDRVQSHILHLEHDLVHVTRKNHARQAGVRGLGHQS
Source text: as §1

Sm (Smith antigen) [6] = test: AtheNA, Ab 25 ug/ml
Source text: as §1

Scl-70 [7] = molecular target: T2, Scl-70; test: AtheNA, Ab 25 ug/ml
Source text: as §1

SSA [8] = test: AtheNA, Ab 25 ug/ml
Source text: as §1

RNP (ribonucleoprotein) [9] = test: AtheNA, Ab 25 ug/ml
Source text: as §1

Histones [10] = test: AtheNA, Ab 25 ug/ml
Source text: as §1

SSB [11] = molecular target: T3, SSB; test: AtheNA, Ab 25 ug/ml
Source text: as §1

Jo-1 [12] = molecular target: T1, Jo-1; test: AtheNA, Ab 6.25 ug/ml
Source text: as §1

Centromere B [13] = molecular target: T4, Centromere B; test: AtheNA, Ab 6.25 ug/ml
Source text: as §1

Sm (Smith antigen) [14] = test: AtheNA, Ab 6.25 ug/ml
Source text: as §1

Scl-70 [15] = molecular target: T2, Scl-70; test: AtheNA, Ab 6.25 ug/ml
Source text: as §1

SSA [16] = test: AtheNA, Ab 6.25 ug/ml
Source text: as §1

RNP (ribonucleoprotein) [17] = test: AtheNA, Ab 6.25 ug/ml
Source text: as §1

Histones [18] = test: AtheNA, Ab 6.25 ug/ml
Source text: as §1

SSB [19] = molecular target: T3, SSB; test: AtheNA, Ab 6.25 ug/ml
Source text: as §1

Jo-1 [20] = molecular target: T1, Jo-1; test: AtheNA, Ab 50 ug/ml
Source text: as §1

Centromere B [21] = molecular target: T4, Centromere B; test: AtheNA, Ab 50 ug/ml
Source text: as §1

Sm (Smith antigen) [22] = test: AtheNA, Ab 50 ug/ml
Source text: as §1

Scl-70 [23] = molecular target: T2, Scl-70; test: AtheNA, Ab 50 ug/ml
Source text: as §1

SSA [24] = test: AtheNA, Ab 50 ug/ml
Source text: as §1

RNP (ribonucleoprotein) [25] = test: AtheNA, Ab 50 ug/ml
Source text: as §1

Histones [26] = test: AtheNA, Ab 50 ug/ml
Source text: as §1

SSB [27] = molecular target: T3, SSB; test: AtheNA, Ab 50 ug/ml
Source text: as §1

STUB-1 = molecular target: T5, STUB-1 (human, UniProt Q9UNE7 1-303); test: array of human antigens
T5 sequence (looked up): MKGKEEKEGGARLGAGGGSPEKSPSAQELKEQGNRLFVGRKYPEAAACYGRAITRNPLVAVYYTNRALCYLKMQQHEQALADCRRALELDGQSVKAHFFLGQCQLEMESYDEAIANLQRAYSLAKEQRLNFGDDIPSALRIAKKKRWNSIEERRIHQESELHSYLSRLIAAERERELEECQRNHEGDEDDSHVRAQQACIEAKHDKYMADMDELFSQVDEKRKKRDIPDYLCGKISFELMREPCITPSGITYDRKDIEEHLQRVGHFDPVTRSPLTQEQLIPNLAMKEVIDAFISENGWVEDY

Jo-1 [28] = molecular target: T1, Jo-1; test: AtheNA, Ab 12.5 ug/ml
Source text: as §1

Centromere B [29] = molecular target: T4, Centromere B; test: AtheNA, Ab 12.5 ug/ml
Source text: as §1

Sm (Smith antigen) [30] = test: AtheNA, Ab 12.5 ug/ml
Source text: as §1

Scl-70 [31] = molecular target: T2, Scl-70; test: AtheNA, Ab 12.5 ug/ml
Source text: as §1

SSA [32] = test: AtheNA, Ab 12.5 ug/ml
Source text: as §1

RNP (ribonucleoprotein) [33] = test: AtheNA, Ab 12.5 ug/ml
Source text: as §1

Histones [34] = test: AtheNA, Ab 12.5 ug/ml
Source text: as §1

SSB [35] = molecular target: T3, SSB; test: AtheNA, Ab 12.5 ug/ml
Source text: as §1

B1: CH557 (antibody, V domains shown)
VH: QVRLAQYGGGVKRLGATMTLSCVASGYTFNDYYIHWVRQAPGQGFELLGYIDPANGRPDYAGALRERLSFYRDKSMETLYMDLRSLRYDDTAMYYCVRNVGTAGSLLHYDHWGSGSPVIVSS
VL: EIVLTQSPATLSASPGERVTLTCRASRSVRNNVAWYQHKGGQSPRLLIYDASTRAAGVPARFSGSASGTEFTLAISNLESEDFTVYFCLQYNNWWTFGQGTRVDIK
notes: also called CH557_4A/293i
- binding result (Jo-1 [1]): no binding (tested: 6.25 ug/ml to 50 ug/ml)
- binding result (Scl-70 [2]): no binding (tested: 6.25 ug/ml to 50 ug/ml)
- binding result (SSB [3]): no binding (tested: 6.25 ug/ml to 50 ug/ml)
- Athena reading (Jo-1 [4]): 2 relative luminescence units
- Athena reading (Centromere B [5]): 25 relative luminescence units
- Athena reading (Sm (Smith antigen) [6]): 6 relative luminescence units
- Athena reading (Scl-70 [7]): 4 relative luminescence units
- Athena reading (SSA [8]): 4 relative luminescence units
- Athena reading (RNP (ribonucleoprotein) [9]): 6 relative luminescence units
- Athena reading (Histones [10]): 8 relative luminescence units
- Athena reading (SSB [11]): 12 relative luminescence units
- Athena reading (Jo-1 [12]): 5 relative luminescence units
- Athena reading (Centromere B [13]): 11 relative luminescence units
- Athena reading (Sm (Smith antigen) [14]): 4 relative luminescence units
- Athena reading (Scl-70 [15]): 3 relative luminescence units
- Athena reading (SSA [16]): 4 relative luminescence units
- Athena reading (RNP (ribonucleoprotein) [17]): 4 relative luminescence units
- Athena reading (Histones [18]): 4 relative luminescence units
- Athena reading (SSB [19]): 5 relative luminescence units
- Athena reading (Jo-1 [20]): 10 relative luminescence units
- Athena reading (Centromere B [21]): 46 relative luminescence units
- Athena reading (Sm (Smith antigen) [22]): 8 relative luminescence units
- Athena reading (Scl-70 [23]): 6 relative luminescence units
- Athena reading (SSA [24]): 6 relative luminescence units
- Athena reading (RNP (ribonucleoprotein) [25]): 10 relative luminescence units
- Athena reading (Histones [26]): 16 relative luminescence units
- Athena reading (SSB [27]): 15 relative luminescence units
- binding result (STUB-1): no binding
- Athena reading (Jo-1 [28]): 5 relative luminescence units
- Athena reading (Centromere B [29]): 16 relative luminescence units
- Athena reading (Sm (Smith antigen) [30]): 6 relative luminescence units
- Athena reading (Scl-70 [31]): 3 relative luminescence units
- Athena reading (SSA [32]): 3 relative luminescence units
- Athena reading (RNP (ribonucleoprotein) [33]): 3 relative luminescence units
- Athena reading (Histones [34]): 6 relative luminescence units
- Athena reading (SSB [35]): 9 relative luminescence units
